The text below walks through data of the DeepSol protein solubility set.

The data set is described as follows: soluble on expression in E. coli; label from the status in PepcDB or PDB records.
Turning to “MAGDPMQKVKSDILTHRGSHFDLGVQTAQWMQHTPLLKNREQEWKKRMPRFDIHIKETYDIFQTYAPQIWEEIRGMQEVLNLPTRQMILNFAHYRFTPLKNSGCTVYLGNDYMVRNYDYHPATYDGRYLLFQPNDGGLAQIGPTSRVTGRMDGMNEAGLAMGYNFMHRKHPGDGFVCYMIGRLVLQYCKDVPEAIKLLKEIPHRSSFSYIVMDKYLNHAIIEVTPRSIDVRYDHTCTNHFKLLTHENRNYTKESTERLDRLIKQTPAQLGKMDAFKLFNNPEFEIYSKLFKSWSGTIHTSMYEPQSLTAHITLGENKAPVEIDFQQWLNGESLNINELTGQIDTELTFATYLEHHHHHH”, the “soluble on expression in E. coli” value is listed as “not soluble”.

On to “MTSAYFGVAGGGNAGAQSAYFGVGGGPAGGGGGNKSAGGGGAPPPGVSCYLGAGAGGAASGSQSAYFGVGGGPVGGGGGGGAPPAASNDAGYFATPPAAPAGGSSTMTAVGGAPRGASTMTAVGGAPVGGSSTMTAVGGAPSGASTMTAIGGAPRGASTMTAVGGAPMGGGSTMTAVGGAPSGASTMTAVGGAPSGASTMTAIGGAPRGASTMTAVGGAPMGGSSTMTAVGGAPIGGSSTMTAVGGAPRGASTMTAVGGAPGGASTMTAMGGGPSAFGGAPPPPSGSAMGGGGGGGATSAYFGVGSGAMGGGGAGAQSAYFGVGGGPVGGGGGGAKSGGGGGGIPGQSVYMGAGGGGGGGGGGGATSAYFAPR”, for which the “soluble on expression in E. coli” value is “not soluble”. As for “MDPEALNLEFYDKNGLDNPIHFRCDPKRIGMTLPSPDFSVDDVLELVGGNRMIEVVQVQNQGSVKMSLQEFINFYKTPQEKREVLYNVLSLEFSQTPLEDLVKSPELVRQIDWVGNQWPDALRQRWISFNGRDKKFYNPHHTFPKVQNYCLMSVANCYTDFHIDFSGTSVWYHVLKGRKVFWLIPPTETNFFIYQEFIKTVNDNAFFGKSVEKCHVAILEPGDTMLIPSGWIHAVYTPDDSLVFGGNFLHSQSCKTQLRVYQVENKLNITRKFRLPYNEELIFYVIADYVKQWTGREYVRPLRIEDAKYDYVGDKWKTAGGHHKKIEYSDYETGVELTNDMIKGDEESTKDEVKVIAMHAENSLFGYPMVSKATFSADTGLEEEADEDEVKYQETKEEMDARRDAEIDELANSNSLIFYKNRTHDFVRNKCVPDHKLPIGHEPPIYFNDDEISRISPRLLDELETLGTYIRRKARVEVAEGICQPASLINTFQTVLKKRRSELTGKKFEFNQIMPRRYTRSTMETGEYDFQPTQEVPQESARRSTRFKVDNFPDELLESEVTDKPIILPQQPSSGPLEYLPAPKDEIKEDINGFEEEFEEEYEGIGQRDDQEEEEYDAEEPEDQEEEEEDEYQAEEYTPTPVTRRSSSRRSGAKNDESEEVSVKKDKKEKMEKVEKDEKRRNSKSKKDKISKEKKKKERERIELESQLDAELRAAHGGGSSKSKKKKPEKPAFVGGLPTSSIQIDPVVSNPYNYDPRMEMMKLGTGQLKSAYRKTKNNVELHIEKNLYKIEPKRGSEEGSQSREQSMEPEHSTPVFTTFDDINEANNDHYDGQKPPTKRAKYEAISVDTYETPSSSRNKEHKEYRPSPNAAPTPSPSHHQKPKLSSPAMVSSTNEYQLRKHMSSERRSSDAGSAMKKGVYMPAMSRQDKMIAEGASAPSSRHSSISSERRPSFIPDFNSSRNSSIDTPYTPTTVTPSRSSWLPNTSSINRHSIEDDSPIDVVNDSLSPINIASSPTYPTAITPPPVTLSDLKKDMSNGRKSHSQHHDDGHKHKIPSKEAIAELKLLVGKLKAINDS”, the “soluble on expression in E. coli” value is “not soluble”. For “MPKIKRVKKGKKLKPNVMIFCEGETEEAYLRLIKRKYSAVNIKSKLKVKTCRRQGEALVEYAVSCIRSMGKAERDNYDLFYVMYDKDEQTTESIENAVRCAQRHRPEIKTIFSNECFELWLLLHFEEVNRYMTRENLYGRLEKVLHLKDSYRNFKGAEVCKYLEEKVAIAFQNTNKNWLSPLEEMKINENPYTNFPKELCEMLAQKEVDF”, the “soluble on expression in E. coli” value is “not soluble”. For the sequence “MGSDKIHHHHHHMTSNGQQGKPNLPEKDNLPRELGTQRINSPIARMGMFGAKTTGDTSGYGRLRVYRHVPAAAQRPYSDPSDPRTAYFDEVADALERSLKEIGTPYDTAISRVVVDRGEITFHVQREHLLDVATRLRDDPALRFELCLGVTGVHYPEDEGNELHAVYALRSITHNYEIRLEVSCPDSDPHIPSIVSVYPTNDWHEREAWDFFGIIFDGHPALTRIHMPDDWHGHPQRKDYPLGGIPVEYRGAKVPPPDQRRSYA”, the “soluble on expression in E. coli” value was “not soluble”.

For “MGSDKIHHHHHHLPALRLLAGPTAYEQLEANGLDQSLFTQLFAASGGPKWLAIAGLDKYLFSEFFQDREDPLYTMGASSGAWRLACMAQQDPLAAYERLEHFYIHQNYEKKPTREQVSAQVLQIVDGILGEQQGADIIANPLIRHHMVACRARHLNRIHAKFGLMMGLSMAAVSNVVNRKSLGWHFERVILSHKDAASPFRRLKDLPTKHVELTQDNIRHGLLATGSIPLLLDPVKDLQGSPKGHYYDGGITDYHFDMPLPAATGLSLYPHFYPYMSPGWFDKSLLWRKAKANYHNGLILAPSKQFIASLPFSKIPDREDFKNLDTKSRITYWQQSVQQSQVLADEFAEIVASGTIMDRIERL”, the “soluble on expression in E. coli” value is given as “not soluble”. Regarding “MLTDQEKIDLVNALDFVVIEPHTQSIYVHNDEKTNGVLAKVLHTISVDEYIESFKKGSLIDIFPAAMQEAGAEGFKDGQFVIMPKKFYVDQCYAMSKEIERLTNLNNLHNIKPNTYQGLIHLEHHHHHH”, the “soluble on expression in E. coli” value was “soluble”. As for “MQEEVNQKVISLSIQGVKITASVLKAALRKFLEMDNRRKQKATQVKMAEKTGRAQEKGREKARKKIEKKKPHGKQTIKQLNAQGVQLSNLKITDENVKSFDRVARKYGIDYSLKKEVGADPPKYLVFFKAKDVDVMTAAFREYAGVELKKKQVKKPSVRKKLQKSVERKAKNRQRVKQRQKSRGQER”, the “soluble on expression in E. coli” value is given as “not soluble”. “MGSDKIHHHHHHMADGGSERADGRIVKMEVDYSATVDQRLPECAKLAKEGRLQEVIETLLSLEKQTRTASDMVSTSRILVAVVKMCYEAKEWDLLNENIMLLSKRRSQLKQAVAKMVQQCCTYVEEITDLPIKLRLIDTLRMVTEGKIYVEIERARLTKTLATIKEQNGDVKEAASILQELQVETYGSMEKKERVEFILEQMRLCLAVKDYIRTQIISKKINTKFFQEENTEKLKLKYYNLMIQLDQHEGSYLSICKHYRAIYDTPCIQAESEKWQQALKSVVLYVILAPFDNEQSDLVHRISGDKKLEEIPKYKDLLKLFTTMELMRWSTLVEDYGMELRKGSLESPATDVFGSTEEGEKRWKDLKNRVVEHNIRIMAKYYTRITMKRMAQLLDLSVDESEAFLSNLVVNKTIFAKVDRLAGIINFQRPKDPNNLLNDWSQKLNSLMSLVNKTTHLIAKEEMIHNLQ”: the “soluble on expression in E. coli” value is “not soluble”. With “MNQKIYWDELKEGEQFSYGHYQVSEHENIDFAKRYDPMEFHVDPEKAKLSPIGALCASGIHTLGIMQRLTFDNIYTNWHIVAGRELRKCQFRLPVFVDDCLTVNMTIAKLSVDTRSDRGNAELTFDVKNAKGKTVLEVEGEIVLQRFPSILEHHHHHH”, the “soluble on expression in E. coli” value is recorded as “not soluble”. “GSHMQTPKETLSERLSALQDKIIDHYENDSKDIDSQIQYWQLIRWENAIFFAAREHGIQTLNHQVVPAYNISKSKAHKAIELQMALQGLAQSAYKTEDWTLQDTCEELWNTEPTHCFKKGGQTVQVYFDGNKDNCMTYVAWDSVYYMTDAGTWDKTATCVSHRGLYYVKEGYNTFYIEFKSECEKYGNTGTWEVHFGNNVIDCNDSMCSTSDDTVSAT”: the “soluble on expression in E. coli” value is “soluble”. Turning to “MGSDKIHHHHHHMENDILKYQKAYNTIVKLLKSNEKVLATMVFGSIVSGDLWEESDIDLFVIIDEEMANIKNIYMEQNDVPIHIKLMGKNKFVLLNENDIKGGFFHRIFASSKLVFSKDKDITEKYDSGRYYPDIDREKWNMVYISDLLKSLGLCKKYLNNKRIYTAYYFSVKCVEEFSKLYINHSGYMVNKDDVNMLTNINGDFKNYIDNLFFSKDNVEEAIKEVVDKIEEFINKNIKSITAILIDYMRDKDKSLSAEDINTDPVFNDFSINFEEILSKLWEFNIIKKGTRKYSIKDGKALCMENVYYL”, the “soluble on expression in E. coli” value was “not soluble”. As for “MGSDKIHHHHHHMDDIKSQIKELRLGAKIRKLRQDRRLTLQELSELSGLSKPLLSQIENDQVTPPIATLLKISKGLKVGIHYFFEEEEDQQKVVLTRAAQQQPTRRRSGNDAPHGYIYRSLAPGIRHKPMEPFLVEFELTDWSDSFFYRHDGFEFIYLLDGELEFHYGSDVMRLLPGDSIYYDSSEPHGYVSVGEERARAVAVLYTRD”, the “soluble on expression in E. coli” value was “not soluble”. Regarding “MSEPIDILIAGAGIGGLSCALALHQAGIGKVTLLESSSEIRPLGVGINIQPAAVEALAELGLGPALAATAIPTHELRYIDQSGATVWSEPRGVEAGNAYPQYSIHRGELQMILLAAVRERLGQQAVRTGLGVERIEERDGRVLIGARDGHGKPQALGADVLVGADGIHSAVRAHLHPDQRPLSHGGITMWRGVTEFDRFLDGKTMIVANDEHWSRLVAYPISARHAAEGKSLVNWVCMVPSAAVGQLDNEADWNRDGRLEDVLPFFADWDLGWFDIRDLLTRNQLILQYPMVDRDPLPHWGRGRITLLGDAAHLMYPMGANGASQAILDGIELAAALARNADVAAALREYEEARRPTANKIILANREREKEEWAAASRPKTEKSAALEAITGSYRNQVERPRLEHHHHHH”, the “soluble on expression in E. coli” value is “soluble”. Regarding “AIWRSRSFDEAIEMFRESLYSAKNEVIVVTPSEFFETIREDLIKTLERGVTVSLYIDKIPDLSEFKGKGNFFVRQFYKLNHLIGMTDGKEVVTIQNATFDSIGPPSFKSTYPEIIFSQYSLIIEIFKESTLEKEIIGNPKDIRFFAMFHAVDFVKNHLKNRNIYAEITGKNLESGRLETLTGRVVGYTLSLREAVNNIHLETENGVVKVGGMFAVIEDYESTEIKFIMGGSRS”, the “soluble on expression in E. coli” value is on record as “soluble”. As to “MSLENVTMGFWYVSPRRGPHRTTRQISAGTWEEVRPNYTTPVADAMDRLMKTTPEDIAGRLLLLHGPPGTGKTSALRTLARSWRDWCQVDCVLDPERLFSDVGYLMDIAIGEEDGTGKGRWRLLLLEDCDELIRGEAKHTAGQALSRLLNLTDGLLGQGRNVLVGVTTNEDLERLHPAVVRPGRCLARIEVGPLTRREAVNWLGTEEGVGREGATLAELYALRRGTSPTSLPEPREGAEGHHHHHH”, the “soluble on expression in E. coli” value is given as “soluble”. “MQNMLSMHFFSVMASLNAMASMRVIVFLYQLSILGDCSTIDSLRDLMISQIVLAYNCISVHVNMYISTNGSEASIASRMSTLESCLFLITMNKGSASFGKRRFFYRDLA”: the “soluble on expression in E. coli” value is listed as “soluble”.

“MDVVFETVNCLESNRKIIIVKLPDGSSEKFFFNVTKRAFEKIVCVDGKPVQMDSDLTPHHSVWCPHIHKNIIFAYNHLLRMNLQYLFDSETLSFHETKCDQCHLDPKKSTNVKQILLVAASPKIRRPIVLTMSQEGRVLKMCYDEIEKNYVDMSPTEIKALTQLKDVTAAMEDLTLDSKVMESDLIPLVKEKSVFLPHDSILIAKNKKTNKIGQYVFDRYHHQFLEVVMSDIEIKQEMPNIAKLINVTMSTKTEQAISIRCTPGIGELKKFHYNRETASFDPMEEKAIVESDEEIQSFIEEIEKTQDIVCKKIKAILWFYHNVKPFLAKKLENPVKKNNDYKRYVFKPVEPEEKVDDEMDSVSEPESDSLSMSSSSRSSSRSSLSSDDSFEMVVDIDFVE”: the “soluble on expression in E. coli” value is recorded as “not soluble”. With “MDAIMMEHRNDFWVFGYGSLMWRPGFAHVETVRARLHGYRRSLCIYSHVHRGTPDHPGLVLGLDTGGSCLGIAFRVPGDMTDEVMTYLREREMANKVYHEKKLHLRLADGRIVEAVAYVADRRHRQYAGRMTSEKAAAIIASAQGESGANIDYVTNTLMHLRNMRVRDHALEHINELVLAAASRQANNAALEHHHHHH”, the “soluble on expression in E. coli” value is “soluble”.
